According to paper doi:10.1101/2024.12.02.626350 (bioRxiv, 2024):

T1: nicotinic acetylcholine receptor (nAChR) δ subunit, muscle-type, Torpedo (Tetronarce californica, UniProt P02718 22-522)
T1 sequence: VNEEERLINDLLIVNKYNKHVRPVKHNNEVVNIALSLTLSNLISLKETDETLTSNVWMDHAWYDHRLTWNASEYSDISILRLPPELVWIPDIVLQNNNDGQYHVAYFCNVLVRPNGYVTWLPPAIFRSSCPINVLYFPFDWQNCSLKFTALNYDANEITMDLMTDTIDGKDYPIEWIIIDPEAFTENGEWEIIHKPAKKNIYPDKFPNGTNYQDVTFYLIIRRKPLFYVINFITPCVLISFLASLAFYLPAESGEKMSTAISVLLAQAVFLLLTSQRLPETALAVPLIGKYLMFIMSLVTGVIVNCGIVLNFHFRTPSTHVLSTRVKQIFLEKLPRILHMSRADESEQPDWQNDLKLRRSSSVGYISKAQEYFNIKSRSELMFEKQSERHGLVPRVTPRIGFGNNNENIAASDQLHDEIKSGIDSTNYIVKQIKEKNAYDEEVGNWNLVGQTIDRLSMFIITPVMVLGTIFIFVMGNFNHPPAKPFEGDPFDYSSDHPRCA

B1: nicotinic acetylcholine receptor (nAChR) α subunit, muscle-type, Torpedo (natural protein)
chain: SEHETRLVANLLENYNKVIRPVEHHTHFVDITVGLQLIQLISVDEVNQIVETNVRLRQQWIDVRLRWNPADYGGIKKIRLPSDDVWLPDLVLYNNADGDFAIVHMTKLLLDYTGKIMWTPPAIFKSYCEIIVTHFPFDQQNCTMKLGIWTYDGTKVSISPESDRPDLSTFMESGEWVMKDYRGWKHWVYYTCCPDTPYLDITYHFIMQRIPLYFVVNVIIPCLLFSFLTGLVFYLPTDSGEKMTLSISVLLSLTVFLLVIVELIPSTSSAVPLIGKYMLFTMIFVISSIIITVVVINTHHRSPSTHTMPQWVRKIFIDTIPNVMFFSTMKRASKEKQENKIFADDIDISDISGKQVTGEVIFQTPLIKNPDVKSAIEGVKYIAEHMKSDEESSNAAEEWKYVAMVIDHILLCVFMLICIIGTVSVFAGRLIELSQEG
B2: nicotinic acetylcholine receptor (nAChR) β subunit, muscle-type, Torpedo (natural protein)
chain: SVMEDTLLSVLFETYNPKVRPAQTVGDKVTVRVGLTLTNLLILNEKIEEMTTNVFLNLAWTDYRLQWDPAAYEGIKDLRIPSSDVWQPDIVLMNNNDGSFEITLHVNVLVQHTGAVSWQPSAIYRSSCTIKVMYFPFDWQNCTMVFKSYTYDTSEVTLQHALDAKGEREVKEIVINKDAFTENGQWSIEHKPSRKNWRSDDPSYEDVTFYLIIQRKPLFYIVYTIIPCILISILAILVFYLPPDAGEKMSLSISALLAVTVFLLLLADKVPETSLSVPIIIRYLMFIMILVAFSVILSVVVLNLHHRSPNTHTMPNWIRQIFIETLPPFLWIQRPVTTPSPDSKPTIISRANDEYFIRKPAGDFVCPVDNARVAVQPERLFSEMKWHLNGLTQPVTLPQDLKEAVEAIKYIAEQLESASEFDDLKKDWQYVAMVADRLFLYVFFVICSIGTFSIFLDASHNVPPDNPFA

What was measured:
[1] = target: B2; test: cryo-EM structure
[2] = target: T1, nicotinic acetylcholine receptor …; test: cryo-EM structure

Binder: B1
- binding result [1]: binds

Binder: B2
- binding result [2]: binds
